Patent publication US6696409 (PRINCE OF WALES MEDICAL RESEARCH INSTITUTE LIMITED POWMR, dated 2004)

T1: human neuropeptide Y Y2 receptor on SMS-MSN cells (human, UniProt P49146 1-381)
T1 construct: whole, on cells; also called NPY Y2 receptor; SMS-MSN (Y2)
T1 sequence (looked up): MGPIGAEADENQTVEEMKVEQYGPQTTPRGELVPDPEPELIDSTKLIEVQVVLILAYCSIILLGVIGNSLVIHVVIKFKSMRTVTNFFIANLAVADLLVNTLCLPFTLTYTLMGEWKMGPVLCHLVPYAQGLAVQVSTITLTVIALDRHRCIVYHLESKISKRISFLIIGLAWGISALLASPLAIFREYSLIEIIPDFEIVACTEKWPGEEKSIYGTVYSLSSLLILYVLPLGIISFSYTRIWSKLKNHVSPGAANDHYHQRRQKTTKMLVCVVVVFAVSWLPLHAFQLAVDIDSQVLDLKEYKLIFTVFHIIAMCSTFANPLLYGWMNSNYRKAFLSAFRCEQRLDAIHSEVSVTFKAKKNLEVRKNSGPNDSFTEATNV

T2: human neuropeptide Y Y1 receptor on SK-N-MC cells (human, UniProt P25929 1-384)
T2 construct: whole, on cells; also called NPY Y1 receptor; SK-N-MC (Y1)
T2 sequence (looked up): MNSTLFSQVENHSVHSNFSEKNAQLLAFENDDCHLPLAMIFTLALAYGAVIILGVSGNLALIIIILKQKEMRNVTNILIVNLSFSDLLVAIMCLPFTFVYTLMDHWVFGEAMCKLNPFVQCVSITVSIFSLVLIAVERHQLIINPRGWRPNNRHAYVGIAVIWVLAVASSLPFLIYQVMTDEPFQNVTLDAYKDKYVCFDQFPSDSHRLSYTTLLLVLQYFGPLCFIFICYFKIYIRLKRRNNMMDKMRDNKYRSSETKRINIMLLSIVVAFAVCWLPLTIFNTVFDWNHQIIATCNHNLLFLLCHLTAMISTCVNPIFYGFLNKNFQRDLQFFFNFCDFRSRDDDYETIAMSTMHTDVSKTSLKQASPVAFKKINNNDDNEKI

B1: AcNPY24-36 (peptide, UniProt P01303 52-64, looked up)
peptide: Ac-LRHYINLITRQRY-NH2
B2: Ac[L28,L31]NPY24-36 (peptide)
peptide: Ac-LRHYLNLLTRQRY-NH2
B3: Ac[A26,L28,L31]NPY24-36 (peptide)
peptide: Ac-LRAYLNLLTRQRY-NH2
B4: Ac[L28,A29,L31]NPY24-36 (peptide)
peptide: Ac-LRHYLALLTRQRY-NH2
B5: Ac[L28,A30,L31]NPY24-36 (peptide)
peptide: Ac-LRHYLNALTRQRY-NH2
B6: Ac[L28,A31]NPY24-36 (peptide)
peptide: Ac-LRHYLNLATRQRY-NH2
B7: Ac[A28,L31]NPY24-36 (peptide)
peptide: Ac-LRHYANLLTRQRY-NH2
B8: Ac[L28,L31,A32]NPY24-36 (peptide)
peptide: Ac-LRHYLNLLARQRY-NH2
B9: Ac[A25,R28,L31]NPY24-36 (peptide)
peptide: Ac-LAHYRNLLTRQRY-NH2
B10: Ac[A24,L28,L31]NPY24-36 (peptide)
peptide: Ac-ARHYLNLLTRQRY-NH2
B11: Ac[A24,A27,L28,L31]NPY24-36 (peptide)
peptide: Ac-ARHALNLLTRQRY-NH2
notes: also called Ac[Ala24, Ala27, Leu28, Leu31]NPY(24-36)
B12: Ac[A25,L28,L31]NPY24-36 (peptide)
peptide: Ac-LAHYLNLLTRQRY-NH2
B13: Ac[A27,L28,L31]NPY24-36 (peptide)
peptide: Ac-LRHALNLLTRQRY-NH2
B14: Ac[A26,27,L28,31]NPY24-36 (peptide)
peptide: Ac-LRAALNLLTRQRY-NH2
B15: Ac[A24,26,27,30,31,L28]NPY24-36 (peptide)
peptide: Ac-ARAALNAATRQRY-NH2
B16: Neuropeptide Y (ligand)
peptide: not shown

Columns and labels:
[1] = biological target: Y1 receptors in anaesthetised rats (rat); assay: cell-based or functional assay
[2] = biological target: Y2-like receptors in anaesthetised rats (rat); assay: cell-based or functional assay
[3] = biological target: T1, human neuropeptide Y Y2 receptor on …; assay: competition with 30 pM [125I]NPY on SMS-MSN cells (human Y2), filtration
[4] = biological target: T2, human neuropeptide Y Y1 receptor on …; assay: competition with 30 pM [125I]NPY on SK-N-MC cells (human Y1), filtration

Binder	Increase in BP (rel to NPY), anaesthetised rats [1]	EC50 of the change in pulse interval (PI %), vagal stimulation in anaesthetised rats [2] [nmol]	IC50 [3] [nM]	IC50 [4] [nM]
B1	0 relative to NPY			
B2	0 relative to NPY	3.16		
B3	0 relative to NPY	1.26	63.1	
B4	0 relative to NPY	1.48	0.05	
B5	0 relative to NPY	0.39	6.31	
B6	0 relative to NPY	0.78	0.06	
B7	0 relative to NPY	2.75	12.6	
B8	0 relative to NPY	6.46	2.51	
B9	0 relative to NPY	1.95	0.1	692
B10	0 relative to NPY	0.46	19.2	
B11	0 relative to NPY	0.89	0.03	
B12	0 relative to NPY	1.58	2	
B13	0 relative to NPY	0.52	0.13	
B14	0 relative to NPY	1		
B15	0 relative to NPY	0.56	3.16	
B16	1 relative to NPY			
